Experimental data published in publication PMC6508782.

Target: Hcf106 G6CV14C (Pisum sativum)
Assay: cross-linking; disulfide cross-linking with 1 mM CuP for 5 min of [3H]Hcf106 Cys variants integrated into NEM-pretreated thylakoid; non-reducing SDS-PAGE, fluorography

stoichiometry N: < 8
Substance: Hcf106 G6CV14C (natural protein)
